The source of these data is patent publication US20130064835A1, “RAGE REGULATES ROCK ACTIVITY IN CARDIOVASCULAR DISEASE” (priority 2009, published 2013).

Test [1] deals with vascular smooth muscle cells. Description: Smooth muscle cell migration assay (QCM Colorimetric Cell Migration Assay). It is filed as cell-based, mice. The note with it: S100B 10 μg/ml; for S100B-stimulated SMC migration in presence of inhibitor: preincubation with agent (Y27632 10 μM, fasudil 10 μM, anti-Tgf-β2 IgG 10 μg/ml vs IgG control), FIGS. 8D, 8F; for SMC migration on incubation with stimulant: Tgf-β2 10 ng/ml, PDGF 10 ng/ml, FIG. 8B. The procedure:
(§1) Wild-type and RAGE null mice vascular smooth muscle cells were isolated and cultured from the aorta and employed through passage 5 to 7. Migration assays were performed using the QCM Colorimetric Cell Migration Assay (Chemicon). Cells (3×10^5/well) were seeded into the upper chambers fitted with a lower 8 μm porous polycarbonate membrane, and the insert was placed in the lower chamber of a 24-well dish containing Dulbeccos' modified Eagle medium and no stimulant, S100B (10 μg/ml; generously provided by Dr. Guenter Fritz), Tgf-β2 (10 ng/ml; R&D Systems), or PDGF (10 ng/ml; R&D Systems) and incubated at 37° C. for 5 hrs and relative migration was measured according to the manufacturer's instructions. In experiments using anti-Tgf-β2 IgG and nonimmune IgG (10 μg/ml, both from Santa Cruz Biotechnology, Santa Cruz, Calif.), Y27632 (10 μM, Sigma Aldrich) and fasudil hydrochloride (10 μM, Tocris Bioscience, Ellisville Mo.) cells were preincubated with these agents or vehicle alone for 2 hrs in the case of antibodies and 30 mins in the case of Y27632 or fasudil at 37° C. prior to the addition to the chemotaxis chambers. Proliferation of cultured SMCs was quantified by measurement of incorporation of tritiated thymidine. SMCs were seeded at a density of 2×10^4 cells/wells in 24-well tissue culture-treated plates and incubated in serum-free DMEM for 16 hrs. Following a 2 hr preincubation with the indicated concentration of anti-Tgf-β2, nonimmune IgG, Y27632 or fasudil, cells were exposed to serum-free DMEM containing the indicated concentration of S100B or PDGF (10 ng/ml) along with 3H-thymidine (1 μCi/well). After the incubation period, cells were harvested 48 hrs later, and cellular proliferation was determined based on the incorporation of tritiated thymidine. Cell counting was performed and confirmed that increased trititated thymidine incorporation reflected an increase in cell number.

For test [2], the system named is vascular smooth muscle cells. Description: Smooth muscle cell proliferation assay (tritiated thymidine incorporation). The test is classed as cell-based, mice. The settings on record: for S100B-stimulated SMC proliferation in presence of inhibitor: preincubation with agent (Y27632 10 μM, fasudil 10 μM, anti-Tgf-β2 IgG 10 μg/ml vs IgG control), FIGS. 8C, 8E; for SMC proliferation on incubation with stimulant: FIG. 8A. On the procedure: as §1
In general terms: Uptake of a labelled nucleoside into DNA is a usual measure of proliferation.

The next test concerns ROCK1. Description: ROCK1 activity assay (MYPT1 phosphorylation) on lysates of aorta or primary aortic SMCs. The settings on record: S100B 10 μg/ml, FIG. 5B. It is filed as cell-based, murine. On the procedure:
Activation of ROCK1 was evaluated on lysates of aorta or primary murine aortic smooth muscle cells retrieved from wild-type or RAGE null mice. In the latter case, SMCs were stimulated with S100B (10 μg/ml for the indicated times and subjected to ROCK1 activity assays (7-8). Aortas or SMCs were lysed using a Triton X-100 lysis buffer containing 50 mM Tris (pH 7.5), 10 mM MgCl2, 0.5 M NaCl and 1% Triton X-100. The samples were incubated with Anti-ROCK1 antibody described above for 1 hr further with Protein G coated agarose beads for overnight at 4° C., and the beads were washed three times with lysis buffer. The amount of ROCK1 associated with the beads was incubated with 50 μl kinase buffer, 1 μl 10 mM ATP (Cell Signalling) and 0.5 μg […] myosin phosphatase-1 (MYPT1)/protein phosphatase-1 regulatory (inhibitor) subunit 12A (Ppplrl2a) substrate (Upstate Biotech) at […] for 30 min. Reaction was stopped by adding sample buffer, boiled for 5 min and the amount of phosphorylated MYPT1 was examined by immunoblotting using ThrB50-phosphorylation specific antibody 36-003 (Upstate Biotechnology). […] Equal quantities of ROCK1 were treated with equal quantities of MYPT1/Ppp1r12a. Relative absorbances were measured as described above, and these were used to determine the relative activation of ROCK1. […]

Consider `C[C@@H](N)[C@H]1CC[C@H](C(=O)Nc2ccncc2)CC1` [Y27632, reference compound], for which the “S100B-stimulated SMC migration in presence of inhibitor” value in test [1] (wild-type SMCs) is listed as “significantly reduced”. Besides, the “S100B-stimulated SMC proliferation in presence of inhibitor” value in test [2] (wild-type SMCs) was “significantly reduced”.

As to `O=S(=O)(c1cccc2cnccc12)N1CCCNCC1` [fasudil, 5-(1,4-diazepane-1-sulfonyl)isoquinoline, reference compound], the “S100B-stimulated SMC migration in presence of inhibitor” value in test [1] (wild-type SMCs) was “significantly reduced”. Also, the “S100B-stimulated SMC proliferation in presence of inhibitor” value in test [2] (wild-type SMCs) is on record as “significantly reduced”.

Regarding PDGF [reference compound], the “SMC migration on incubation with stimulant” value (from here on “SMC migration on incubation”) in test [1] (RAGE-deficient SMCs) and in test [1] (wild-type SMCs) was “increased” each time. Further, the “SMC proliferation on incubation with stimulant” value (from here on “SMC proliferation on incubation”) in test [2] (RAGE-deficient SMCs) and in test [2] (wild-type SMCs) was “increased” throughout.

B1: Tgf-β2: Tgf-β2 (R&D Systems), used as SMC stimulant (protein)
chain: ALDAAYCFRNVQDNCCLRPLYIDFKRDLGWKWIHEPKGYNANFCAGACPYLWSSDTQHTKVLSLYNTINPEASASPCCVSQDLEPLTILYYIGNTPKIEQLSNMIVKSCKCS
Consider B1, for which the “SMC migration on incubation” value in test [1] (RAGE-deficient SMCs) and in test [1] (wild-type SMCs) was “increased” in each case. The “SMC proliferation on incubation” value in test [2] (RAGE-deficient SMCs) and in test [2] (wild-type SMCs) was “increased” throughout.

B2: S100B: RAGE ligand S100B (protein, UniProt P04271 2-92, looked up)
Protein S100-B: SELEKAMVALIDVFHQYSGREGDKHKLKKSELKELINNELSHFLEEIKEQEVVDKVMETLDNDGDGECDFQEFMAFVAMVTTACHEFFEHE
On to B2, for which the “ROCK1 activity upon incubation with RAGE ligand” value in the test on ROCK1 (SMCs from RAGE null mice) was “failed to increase ROCK1 activity”; in the test on ROCK1 (primary aortic SMCs from wild-type mice), “increased ROCK1 activity”. In addition, the “SMC migration on incubation” value is “failed to stimulate” in test [1] (RAGE-deficient SMCs) and “significantly increased” in test [1] (wild-type SMCs). Moreover, the “SMC proliferation on incubation” value in test [2] (RAGE-deficient SMCs) was “failed to stimulate”; in test [2] (wild-type SMCs), “significantly increased”.
